# B1: D815-6aa-G33 (protein)
# chain: WLDQERAWLWCEISGRGCLSGGSGGSGIISQSCPESFYDWFAGQVSDPWWCW
# B2: S255 (peptide)
# chain 1: SDGFYNAIELLSGGGX
# chain 2: SDGFYNAIELLSGGGX
# modifications: listing feature
# B3: S246 (peptide)
# chain 1: ACAWPTYWNCGGGGX
# chain 2: FHENFYDWFVRQVSKKX
# modifications: listing feature
# B4: S456 (peptide)
# chain 1: XGSLDESFYDWFERQLGKK
# chain 2: XKEWLDQEWAWVQCEVYGRGCPSEE
# modifications: not fully specified; listing feature
# Assays:
# [1] = target: human insulin receptor (HIR) (human, UniProt P06213); assay: competition
# [2] = target: T1, human IGF-1 receptor (IGF-1R) (human, UniProt P08069); assay: competition, AlphaScreen vs b-hIGF-1
# [3] = target: T1, human IGF-1 receptor (IGF-1R); assay: competition
# [4] = target: T1, human IGF-1 receptor (IGF-1R); assay: competition, TRF vs b-rhIGF-1
# [5] = target: T1, human IGF-1 receptor (IGF-1R); assay: competition, TR-FRET vs b-20E2
# [6] = target: T1, human IGF-1 receptor (IGF-1R); assay: competition, TR-FRET vs b-20E2; remark: listed apart in the source
binder,measurement,setting,value
CGFHENFYDWFVRQVSKK [S171],Kd,[1],2900 nM
EGSSINLLARAQIVELALEMGVQEE [RP54],IC50,[2],1600 nM
WLDQERAWLWCEISGRGCLS [rD815],Ki,[3],4080 nM
same,IC50,[4],4080 nM
VMDARDDPFYHKLSELVT [RP16],IC50,[5],961 nM
SDGFYNAIELLS [S118],Kd,[1],2400 nM
DYKDFYDAIDQLVRGSARAGGTRD [20E2 (D118)],IC50,[6],104 nM
same,IC50,[5],100 nM
GSLDESFYDWFERQLG [S386 / RP9 without terminal lysines],Ki,[3],417 nM
same,IC50,[4],417 nM
same,IC50,[6],39.3 nM
same,IC50,[5],33 nM
B1,Ki,[3],624 nM
same,IC50,[4],624 nM
B2,Kd,[1],1600 nM
TFYSCLASLLTGTPQPNRGPWERCRKK [S327 / RP6KK],IC50,[2],190 nM
ANFYDWFVAELG [S242],Kd,[1],2000 nM
HDPFYSMMKSLLK [S120],Kd,[1],2000 nM
HPTSKEIYAKLLK [S122],Kd,[1],9300 nM
WLDQERAWLWCEISGRGCLSGGSGGSGSLDESFYDWFERQLGKK [D815-6aa-RP9],Ki,[3],36 nM
same,IC50,[4],35.7 nM
CWARPCGDAANFYDWFVQQAS [C1 (D112)],IC50,[6],0.88 nM
same,IC50,[5],10 nM
SFYSCLESLVNGPAEKSRGQWDGCRKK [RP33-IGF],IC50,[2],9 nM
WLDQERAWLWCEISGRGCLSGGSGGSGGSGGSGSLDESFYDWFERQLGKK [D815-12aa-RP9],Ki,[3],3 nM
same,IC50,[4],3.22 nM
SQAGSAFYAWFDQVLRTV [RP15],IC50,[5],706 nM
B3,Kd,[1],5000 nM
GIISQSCPESFYDWFAGQVSDPWWCW [S326 / G33],Ki,[3],1450 nM
same,IC50,[4],1450 nM
same,IC50,[5],178 nM
FHENFYDWFVQRVSKK [H2C (D117)],IC50,[6],460 nM
PPWGARFYDAIEQLVFDNL [RP4],IC50,[5],8100 nM
LDALDRLMRYFEERPSL [S173],IC50,[6],6290 nM
AAAAFYDWFAAAAAKK [S168],Kd,[1],3800 nM
B4,Kd,[1],2.4 nM
SAKNFYDWFVKK [A6],IC50,[6],31000 nM
WLEQERAWIWCEIQGSGCRA [S263 / D8B12],IC50,[6],11300 nM
